{"source": "patent US12070483B2", "about": "“Compositions and methods for treatment of acute lung injury” (THE TRUSTEES OF THE UNIVERSITY OF PENNSYLVANIA, priority 2018, dated 2024)", "key": {"[1]": {"test_system": "mice, intraperitoneal LPS", "test": "Intraperitoneal LPS (15 μg/g) model of ALI with systemic sepsis: survival", "conditions": "LPS 15 μg/g IP", "method": "LPS (15 mg/g body wt) was given to all mice either by: FIG. 7A: intratracheal (IT) or FIG. 7B: intraperitoneal (IP) injection. PIP-2 in liposomes or placebo (liposomes alone) was administered intravenously (IV) 12 h after LPS (this is treatment time zero) and then at 12 or 24 h intervals for a total of 5 doses as indicated by the arrows. FIG. 7A: PIP-2 at 2 μg/g body wt; N=14 for each group. FIG. 7B: PIP-2 at 2 or 20 μg/g body wt.; Placebo group, n=8; PIP-2 2 mg group, n=7; PIP-2 20 mg group, n=10.\nAnesthesized mice were administered LPS (either 5 or 15 μgig body weight) in 20 μl saline that was instilled into the lung through an endotracheal catheter placed at the level of the tracheal carina. […] PIP-2 in liposomes was suspended in 20 μl saline for IV or IT injection. For studies to evaluate the effect of PIP-2 at zero time, LPS administration was followed by liposomes±PIP-2 also given by IT instillation. For studies to evaluate the effect of PIP-2 administered at later times after LPS, the liposomes±PIP-2 were given by injection into a retinal artery. This shift in route of administration was used to minimize damage to the mouse trachea that could occur with repeated tracheostomy and lead to untoward effects on the lung. […] We gave the second dose of PIP-2 at 12 h to be certain of maximal coverage and then went to every 24 h for PIP-2 administration. For the model of sepsis, LPS (15 μg/g body wt.) in 20 μl saline was injected intraperitoneally and mice were treated with IV PIP-2 at either 2 or 20 μg/g body wt; note that the initial dose of PIP-2 for this sepsis model was IV, not IT. We used the same times of PIP-2 administration in the sepsis model as were used for the IT LPS model. After recovery from anesthesia, all mice were maintained in the vivarium with access ad lib to food and water.\nWe next evaluated the effect of PIP-2 in mice given LPS (15 μg LPS/g body wt.) by the intraperitoneal route as a model for ALI associated with systemic sepsis."}, "[2]": {"test_system": "mechanically ventilated mice", "test": "Ventilation-induced lung injury (VILI)", "type": "in vivo, mouse", "conditions": "PIP-2 2 ug/g in liposomes IT at start of 6 h mechanical ventilation", "procedure": "FIG. 13: Effect of PIP-2 on ventilation-induced lung injury (VILI). Anesthetized mice were mechanically ventilated for 6 h with tidal volume 12 ml/Kg body weight with a respiratory rate 120/min, and 2 cm H2O positive end-expiratory pressure (PEEP). […] Control represents values for normal (non-ventilated) lungs. % Protection was calculated as in Table 1. Results are mean±SE for n=4. *P<0.05 for VILI+PIP vs VILI."}, "aiPLA2 activity": {"target": "T1, aiPLA2 activity (Homo sapiens, UniProt P30041)", "T1 sequence (P30041 1-224)": "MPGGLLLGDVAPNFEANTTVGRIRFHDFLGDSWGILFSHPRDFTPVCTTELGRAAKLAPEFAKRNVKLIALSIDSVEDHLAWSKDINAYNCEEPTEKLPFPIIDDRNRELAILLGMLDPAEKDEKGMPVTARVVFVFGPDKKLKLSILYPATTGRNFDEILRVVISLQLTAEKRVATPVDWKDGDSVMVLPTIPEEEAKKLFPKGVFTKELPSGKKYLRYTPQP", "test": "Inhibitory activity of PIP-2 after storage as dry powder at room temp.", "type": "biochemical", "conditions": "for aiPLA2 Activity: PIP-2 stored as dry powder at room temp.", "procedure": "aiPLA2 activity was measured at intervals to determine how long the peptide could maintain its efficacy as an inhibitor of aiPLA2 activity. The peptide was stable for the 4 months of observation."}, "ROS production in lung": {"test_system": "ROS production in lung", "test": "Lung ROS production (DFF-DA fluorescence) after IT LPS", "type": "in vivo, mouse", "conditions": "PIP-2 with IT LPS 5 μg/g; 6, 12 and 24 h", "procedure": "FIGS. 9A and 9B: PIP-2 inhibits the increased lung aiPLA2 activity and increased ROS generation after LPS administration. LPS (5 μg/g body weight) was administered by intratracheal (IT) instillation along with liposomes alone (labeled as LPS) or with PIP-2 in liposomes (labeled as +PIP-2). Control was liposomes alone without LPS (labeled as control). Mice were sacrificed at 6, 12, or 24 h after LPS and lungs were perfused in situ for 15 min with saline solution containing the fluorophore difluorofluoroscein diacetate (DFF-DA). Lungs then were homogenized and assayed for: FIG. 9A: aiPLA2 activity; FIG. 9B: fluorescence of the lung homogenate as an index of ROS production. Results are mean±SE for N=3 for A and N=4 for B. *P<0.05 vs. Control and +PIP-2 at the same time point; ΔP<0.05 vs. corresponding value at 6 h.\nTo determine lung ROS production after LPS treatment, intact mice were treated with LPS (5 μg/g)±PIP-2 (2 μg/g). Mice were anesthesized at 6, 12, or 24 h after treatment with LPS and lungs in situ were cleared of blood and then perfused for […] with saline solution containing the fluorophore DFF-DA that is hydrolyzed intracellularly to DFF. Lungs were then homogenized, and fluorescence of the homogenate was measured at Ex 495 nm, Em 525 nm. Lung fluorescence was expressed as AFU per minute of perfusion with normalization to the mouse body wt."}}}
{"sequence": "LHDFRHQIL (Inhibitory peptide.) [PIP-2]", "values": [{"measurement": "mice fully recovered", "setting": "[1]; PIP-2 2 μg/g IV", "result": 43, "unit": "%"}, {"measurement": "survival at 36 h after LPS", "setting": "[1]; PIP-2 2 μg/g IV, placebo 100% dead by 48 h", "result": 86, "unit": "%"}, {"measurement": "long term survival rate", "setting": "[1]; PIP-2 20 μg/g IV", "result": 70, "unit": "%"}, {"measurement": "effect on ventilation-induced lung injury", "setting": "[2]", "result": "protected against lung injury"}, {"measurement": "aiPLA2 Activity", "setting": "aiPLA2 activity; 0 days, no PIP-2 100", "result": "29.7 ± 2.9", "unit": "nmol/min/mg prot."}, {"measurement": "aiPLA2 Activity", "setting": "aiPLA2 activity; 30 d", "result": "31.1 ± 1.3", "unit": "nmol/min/mg prot."}, {"measurement": "aiPLA2 Activity", "setting": "aiPLA2 activity; 45 d", "result": "31.8 ± 1.0", "unit": "nmol/min/mg prot."}, {"measurement": "aiPLA2 Activity", "setting": "aiPLA2 activity; 60 d", "result": "32.8 ± 0.9", "unit": "nmol/min/mg prot."}, {"measurement": "aiPLA2 Activity", "setting": "aiPLA2 activity; 120 d, no PIP-2 at 120 d 103", "result": "31.9 ± 2.4", "unit": "nmol/min/mg prot."}, {"measurement": "stability as dry powder", "setting": "aiPLA2 activity; room temp., 4 months of observation", "result": "stable"}, {"measurement": "ROS-generated fluorescence of lung after LPS", "setting": "ROS production in lung", "result": "dramatic decrease"}]}
